According to the supplement of paper PMC6755084:

B1: F1*; the commonest letter at each place (parent)
chain: GAGACCGCAACTGAAAAGTTGTTATCACTTGTCGTAAGACACTTTGGATGGGTTGAAGTTCTGCACGTAGAAGCAAAAGGC

Variants of: B1
Experiment: fraction ligated after 30 min (ligated reads / total reads); higher = more ligase activity
Settings: with F1*sub RNA substrate (template-directed ligation), 42 °C
Procedure: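 Chip-synthesised pool of F1* ligase ribozyme variants (all single and double substitutions, single, double and triple deletions in the catalytic core and GAA bulge, plus designed variants) was transcribed with T7 and reacted as a pool with excess substrate F1*sub for 30 min at 42 C in 50 mM EPPS pH 8.5, 25 mM MgCl2. Ligated and unligated bands were separated by PAGE, barcoded by RT and deep sequenced; fraction ligated = ligated reads / total reads per variant, relative activity = FL / FL of wild type (0.826). Sequences are the DNA template of the ribozyme.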

Variant | fraction ligated
G47T A48T | 0.283
C26G G47T | 0.159
A36G T49C | 0.4
A36G T49A | 0.725
C26T A37G | 0.841
T23G G47T | 0.346
A39G A41C | 0.781
T29A G50T | 0.585
T29G C33T | 0.808
T45A A56G | 0.768
G38T T45C | 0.627
A36G G38T | 0.806
A39C G50A | 0.292
C26G A57C | 0.33
T35G A48G | 0.79
T32C A37C | 0.79
G31T | 0.793
C26A T44G | 0.78
A24T A37C | 0.77
C33A | 0.869
A24G T49C | 0.731
A24G T49G | 0.731
T29C G34A | 0.827
T25A T30C | 0.218

Variant | fraction ligated
C40G A48G | 0.786
C33G T45G | 0.0204
C26G A37C | 0.674
T35C G46A | 0.829
T32G G47A | 0.556
T29G G47A | 0.816
A24G T29G | 0.811
C26A T35A | 0.803
C26A T35C | 0.807
G46C G50C | 0.0426
T49C G50T | 0.714
A37G G50T | 0.785
A37C A56C | 0.818
A36G A57T | 0.878
G31T G34T | 0.793
T25A T32A | 0.094
T30A A48C | 0.741
T43G T44C | 0.809
A27C A56T | 0.787
G47C T49A | 0.0759
C33G G46A | 0.811
T35G T44G | 0.851
T23A A37G | 0.84
A39T A48G | 0.778

Variant | fraction ligated
A39T G47T | 0.22
A39T G47A | 0.759
A39T G47C | 0.229
A39C A57G | 0.786
C33T G55T | 0.839
C33A T49G | 0.739
T30G C33A | 0.86
G34A T45C | 0.795
A48G G55T | 0.686
G55T A57T | 0.794
T35A C40G | 0.834
G38T A48T | 0.129
A24C G34T | 0.648
G31C A57C | 0.788
C40G T45G | 0.0145
T29A A41C | 0.801
T43C A56C | 0.731
A27T T32A | 0.874
T32G T43A | 0.812
G31C C40A | 0.793
C42A G55A | 0.837
A36T A37C | 0.838
T43A G50T | 0.614
T32C G55C | 0.664

Variant | fraction ligated
T30C C42G | 0.817
G31T T35A | 0.797
T44A A56C | 0.797
A24G A57C | 0.632
G34A C42A | 0.839
A27C T35G | 0.82
T25A T44A | 0.762
G31A C40G | 0.85
G34T G50A | 0.606
C26A C28G | 0.395
C33G A36T | 0.825
G31C T44C | 0.792
A27G T43G | 0.796
C26T G34A | 0.832
C28A T44C | 0.802
A37C A39T | 0.807
A37C A39C | 0.782
G31C C33A | 0.798
G31C C33T | 0.777
G46A T49A | 0.501
A41C T45G | 0.0888
C33A C40G | 0.849
C33A C40T | 0.849
A27G T49C | 0.601

Variant | fraction ligated
G38A A39G | 0.854
G55T A56T A57G | 0.0103
G31C G55A | 0.809
A27C T43C | 0.78
A27G A41T | 0.837
T30A G31A | 0.842
A24T G38C | 0.685
T43C T49G | 0.665
T32C G50A | 0.216
A41G A48C | 0.736
T23G A57G | 0.819
T23A T43A | 0.803
T30A C33A | 0.847
A24T G55T | 0.18
C42T A48C | 0.779
C33T A56C | 0.795
A39C T49C | 0.159
C26A A56G | 0.096
G34C T45G | 0.0478
T23G A56C | 0.794
T29C A56C | 0.758
A37T T43G | 0.804
C33G T49C | 0.312
A37T T49C | 0.733

Variant | fraction ligated
A41C G47A | 0.228
C33T G38C | 0.835
C33T G38T | 0.847
A37G T49A | 0.796
A24T G47A | 0.797
T29G A36G | 0.823
T32G T35G | 0.831
C33G T44G | 0.808
C26T A27G | 0.771
T25G A41C | 0.0915
G47C | 0.236
T29C C40A | 0.791
T29C C40T | 0.818
C26T A57C | 0.84
T23A G46T | 0.479
T23A G46A | 0.749
C26A G50C | 0.0201
C26A G38A | 0.774
C26A A37T | 0.797
T25G C40A | 0.229
T29C G47A | 0.793
T23C G50A | 0.632
A24T A27C | 0.737
T29A T49C | 0.66

Variant | fraction ligated
T23C C28A | 0.73
A24C T35A | 0.782
C28A G31T | 0.826
A27T G47C | 0.0127
G55T A56C A57C | 0.00348
A36C A48G | 0.784
G31T T49A | 0.146
A37G C40A | 0.807
A41T T49G | 0.749
A41T T44A | 0.815
C26A T49G | 0.502
A39C A41C | 0.792
A36C A39T | 0.802
G38T G50A | 0.386
A24G G47T | 0.0352
G55C | 0.778
T25A T29C | 0.187
T35A T49G | 0.817
A37C T45A | 0.78
T32C T45G | 0.109
C28G T43A | 0.807
T32G A56C | 0.743
G31A A37G | 0.827
T43C G50T | 0.441

Variant | fraction ligated
T29C A39T | 0.807
T45C | 0.74
T35A G50C | 0.474
C42A A56T | 0.798
C26G G50C | 0.0252
G34T A36C | 0.843
A48T G50C | 0.0873
G47T G50C | 0.048
G50T A56T | 0.0827
T44G A48G | 0.787
T30A T32C | 0.768
A36T A48G | 0.781
T25G A57T | 0.563
C28T G31A | 0.81
C28T G31C | 0.828
C42A A48G | 0.785
T49C A56G | 0.0622
G38A G47A | 0.796
A36G G47C | 0.0195
A27G G47T | 0.329
A36C T43G | 0.797
G46A G50T | 0.232
C33G A57T | 0.836
T35G T45A | 0.772

Variant | fraction ligated
C40T A41C | 0.78
A24G T43G | 0.694
A27C | 0.81
T30C T32C C33G G38C A39G A41G | 0.816
T25C G46A | 0.71
T25C G46C | 0.474
T25C C42T | 0.804
A24T A39T | 0.619
T25A A41C | 0.0344
A27C G46A | 0.82
G34A A36C | 0.83
C26G C28A | 0.688
C28A C40T | 0.773
T32G A57T | 0.814
T32C C33G | 0.797
G34C T35A | 0.815
A37C G47A | 0.796
A27T T43A | 0.799
T23A G50A | 0.477
A39C G55A | 0.821
G38C A57T | 0.828
T43A T44C | 0.836
G31T T45C | 0.116
T30A T45C | 0.746

Variant | fraction ligated
C26G A41C | 0.0431
A39G G47A | 0.795
A37T G50T | 0.793
A41C G55C | 0.329
C28G G38C | 0.778
T23G T35G | 0.86
A36T T45G | 0.385
T30C G31C T32C A39G C40G A41G | 0.867
T29G G31A | 0.836
C26T T44A | 0.845
C33A A36G | 0.824
T25A A56C | 0.0125
T30G G38A | 0.843
G34T G47C | 0.342
C33T A48T | 0.452
A24C G46C | 0.043
G34A T49G | 0.819
T29A G55T | 0.788
T23G T30A | 0.808
C33A A57T | 0.849
T32C A48G | 0.75
C28A T32G | 0.812
A37G A39G | 0.853
A37G G46C | 0.81

Variant | fraction ligated
T29C T44A | 0.802
C26A A39T | 0.721
C26A A39C | 0.627
C33G A41G | 0.791
T35A A37C | 0.872
A24T C26A | 0.217
A56T A57T | 0.454
A56T A57C | 0.0772
A39T A57G | 0.869
T29C A41T | 0.788
T30G A56G | 0.757
T32A T44C | 0.82
C28T C42G | 0.813
T29A T43G | 0.85
T29A T43A | 0.84
A27G T30C | 0.811
T25G A27G | 0.434
C26T G46C | 0.81
T35A A48T | 0.8
G50T A57T | 0.324
A39C C42T | 0.827
A24C T30C | 0.168
A24C T30G | 0.57
T25G T45C | 0.0153

Variant | fraction ligated
C42T | 0.856
T25A A27G | 0.372
T29G A57C | 0.765
A39T G50A | 0.239
A24G A56G | 0.0845
A37C G38C | 0.818
T25A G50C | 0.267
C28T T35A | 0.802
G38T C42A | 0.842
G34A A41G | 0.81
G31A T43C | 0.797
G31A T43A | 0.815
T23G A48G | 0.788
C28T A57G | 0.798
T35A A36T | 0.85
C42T A57G | 0.812
G47A A48T | 0.803
A41C A48C | 0.571
T32C T49G | 0.647
C40A G55A | 0.807
G47T A57G | 0.101
A41T G50C | 0.268
T23C C33T | 0.839
C26G G34C | 0.371

Variant | fraction ligated
T29G T32A | 0.821
T23A T32A | 0.859
T29A A36T | 0.847
G38T A56C | 0.745
T29C G31C | 0.804
T29C G31T | 0.755
G50C A56G | 0.0166
T23C C40A | 0.792
T30G G50C | 0.342
T35C A36C | 0.8
C28A T43A | 0.799
A37T G47C | 0.178
A41T T43A | 0.822
T43A A57C | 0.792
G58C | 0.767
G47A A56G | 0.098
A36G A37C | 0.835
C42T A56T | 0.811
C42T A56G | 0.821
G34A A48T | 0.798
T25G G38A | 0.676
C40T A57G | 0.839
G38C T43C | 0.822
T43A | 0.855

Variant | fraction ligated
T32G T49G | 0.669
T44A T49C | 0.737
T25A C42T | 0.785
T25G T32G | 0.293
C26G A27T | 0.411
C28A A37T | 0.801
T32A T35A | 0.855
T30A A36G | 0.832
T29C T43C | 0.802
A24C A48C | 0.186
C26T A36C | 0.788
A39C C40T | 0.784
T29G A39T | 0.822
T43G T49G | 0.743
T23A C42A | 0.817
T29A G46C | 0.779
C28G T44A | 0.791
T23C G34A | 0.819
T29C G55C | 0.638
G34T T45A | 0.794
T29A A39C | 0.82
C28G A56C | 0.7
